Article PMC8787470, “Functional Irreplaceability of Escherichia coli and Shewanella oneidensis OxyRs Is Critically Determined by Intrinsic Differences in Oligomerization” (mBio, 2022)

B1: OxyR^Δ290− (SoOxyR truncation lacking all residues after 290) (domain or fragment, Shewanella oneidensis, UniProt Q8EHA1 1-290, looked up)
chain: MKNLPSLKNLYYLVNLHQEQNFNRAAKVCFVSQSTLSSGIQNLEEQLGHQLIERDHKSFMFTAIGEEVVQRSRKILTDVDDLVELVKNQGEPMTGDIRLGCIPTIAPFLLSRVVKQCQQAYPEMSLLLKEDTTERLLDALGKGELDLLILALPVDTSGYHSMKVGIDPFKMVIHKDLVGGIHQPIDYQTLPDESIFLLQSEHCITGHAITACQLGDSAKVNPFAATSLHTLVQMVNSKLGTTFLPQMAIDAGILNDTDLVVMTPPGEAPYRDIGLVWRQTTSRILTFRTL
notes: OxyR of Shewanella oneidensis, C-terminal truncation; the series is defined by SoOxyR^Δ283− (truncation lacking all residues after R283); also called SoOxyR^Δ290−; not shown: His6, N-terminal, kept
B2: OxyR_(R288E+F287A) (SoOxyR double point mutant) (natural protein, Shewanella oneidensis, UniProt Q8EHA1 1-304, looked up)
chain: MKNLPSLKNLYYLVNLHQEQNFNRAAKVCFVSQSTLSSGIQNLEEQLGHQLIERDHKSFMFTAIGEEVVQRSRKILTDVDDLVELVKNQGEPMTGDIRLGCIPTIAPFLLSRVVKQCQQAYPEMSLLLKEDTTERLLDALGKGELDLLILALPVDTSGYHSMKVGIDPFKMVIHKDLVGGIHQPIDYQTLPDESIFLLQSEHCITGHAITACQLGDSAKVNPFAATSLHTLVQMVNSKLGTTFLPQMAIDAGILNDTDLVVMTPPGEAPYRDIGLVWRQTTSRILTAETLGLLIQKLLTNETAQ
notes: OxyR of Shewanella oneidensis, the whole protein with two point mutations in helix α10; also called SoOxyR_(R288E-F287A); not shown: His6, N-terminal, kept
B3: OxyR^Δ286− (SoOxyR truncation lacking all residues after 286) (domain or fragment, Shewanella oneidensis, UniProt Q8EHA1 1-286, looked up)
chain: MKNLPSLKNLYYLVNLHQEQNFNRAAKVCFVSQSTLSSGIQNLEEQLGHQLIERDHKSFMFTAIGEEVVQRSRKILTDVDDLVELVKNQGEPMTGDIRLGCIPTIAPFLLSRVVKQCQQAYPEMSLLLKEDTTERLLDALGKGELDLLILALPVDTSGYHSMKVGIDPFKMVIHKDLVGGIHQPIDYQTLPDESIFLLQSEHCITGHAITACQLGDSAKVNPFAATSLHTLVQMVNSKLGTTFLPQMAIDAGILNDTDLVVMTPPGEAPYRDIGLVWRQTTSRILT
notes: OxyR of Shewanella oneidensis, C-terminal truncation; the series is defined by SoOxyR^Δ283− (truncation lacking all residues after R283); also called SoOxyR^Δ286−; not shown: His6, N-terminal, kept
B4: SoOxyR RD_(C203S) (regulatory domain of Shewanella oneidensis OxyR, residues 91 to 304, C203S) (domain or fragment, UniProt Q8EHA1 91-304, looked up)
chain: EPMTGDIRLGCIPTIAPFLLSRVVKQCQQAYPEMSLLLKEDTTERLLDALGKGELDLLILALPVDTSGYHSMKVGIDPFKMVIHKDLVGGIHQPIDYQTLPDESIFLLQSEHSITGHAITACQLGDSAKVNPFAATSLHTLVQMVNSKLGTTFLPQMAIDAGILNDTDLVVMTPPGEAPYRDIGLVWRQTTSRILTFRTLGLLIQKLLTNETAQ
notes: OxyR of Shewanella oneidensis, regulatory domain (RD), residues 91 to 304 of the full-length protein, locked in the reduced form by C203S; Six molecules in the crystallographic asymmetric unit; also called RD_(C203S) of SoOxyR; SoOxyR^C203S RD

Columns and labels:
[1] = biological target: the molecule itself; assay: native gel or EMSA; oligomers read from shifted bands of protein on DNA: 10 nM digoxigenin-labelled 188 bp katB promoter probe, various amounts of His6-OxyR variant, 4 mM Tris-HCl pH 8.0, 40 mM NaCl, 4 mM MgCl2, 4% glycerol, poly(dI-dC), room temperature 15 min, 7% native polyacrylamide gel
[2] = biological target: the molecule itself; assay: crystal structure; SoOxyR RD C203S crystallised at 20°C by hanging-drop vapor diffusion, 4.0 M ammonium acetate, 0.1 M Bis-Tris propane pH 7.0; six molecules in the asymmetric unit; interfaces listed with PDBePISA

Protein | stoichiometry N [1] | further results
B1 | 4 | –
B2 | 4 | –
B3 | – | binding result [1]: binds
B4 | – | binding result [2]: binds
